From patent US20250025549A1

What was measured:
[1] = molecular target: dipeptidyl peptidase IV (DPP4), the MERS-CoV receptor, His-tagged (human) (UniProt P27487)
[2] = molecular target: dipeptidyl peptidase IV (DPP4), the MERS-CoV receptor, His-tagged (human) (UniProt P27487); assay: ELISA, spike coated, His-tagged hDPP4 titrated

Sequence of dipeptidyl peptidase IV (DPP4), the MERS-CoV receptor, His-tagged (human) (P27487 29-766 limits assumed): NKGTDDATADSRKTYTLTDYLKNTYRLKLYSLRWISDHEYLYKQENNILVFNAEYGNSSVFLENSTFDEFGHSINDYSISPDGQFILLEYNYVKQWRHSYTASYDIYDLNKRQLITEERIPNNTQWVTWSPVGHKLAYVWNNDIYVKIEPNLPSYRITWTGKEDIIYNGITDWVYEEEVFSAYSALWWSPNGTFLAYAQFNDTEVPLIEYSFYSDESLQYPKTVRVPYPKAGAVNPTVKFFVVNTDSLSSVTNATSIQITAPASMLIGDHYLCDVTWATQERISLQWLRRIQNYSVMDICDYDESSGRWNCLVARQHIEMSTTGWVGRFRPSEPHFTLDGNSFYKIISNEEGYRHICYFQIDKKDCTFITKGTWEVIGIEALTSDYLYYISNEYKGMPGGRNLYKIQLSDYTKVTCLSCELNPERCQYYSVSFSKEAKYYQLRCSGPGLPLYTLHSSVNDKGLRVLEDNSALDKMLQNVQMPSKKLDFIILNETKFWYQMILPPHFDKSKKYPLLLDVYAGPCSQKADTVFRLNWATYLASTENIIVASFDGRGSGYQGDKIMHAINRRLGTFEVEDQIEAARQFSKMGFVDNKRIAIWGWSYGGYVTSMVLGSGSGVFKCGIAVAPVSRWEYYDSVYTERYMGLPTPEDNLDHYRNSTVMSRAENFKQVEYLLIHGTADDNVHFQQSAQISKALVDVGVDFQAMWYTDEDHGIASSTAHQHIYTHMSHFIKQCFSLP

Question: “BV2373 CoV S polypeptide (SEQ ID NO: 87) (from UniProt P0DTC2 14-1273) (other; other documents disagree on this pair)” was tested. Which IC50 [1] did it give?
Answer: > 5 µg/mL

Question: And the EC50 [2]?
Answer: > 5 µg/mL
